{"source": "the RNAGym collection of RNA variant scans (doi:10.7554/elife.80360)", "parents": {"B1": {"name": "Twister Ribozyme (parent)", "chain": "AACACUGCCAAUGCCGGUCCCAAGCCCGGAUAAAAGUGGAGGGGGCGG"}}}
{"variants_of": "B1", "experiment": "self-cleavage, relative activity (ratio to wild type); higher = more cleavage; co-transcriptional"}
{"variant": "AACACUGCCAAUGCCGGUCCCAAGCCCGGAUCAAAUUGGAGGGGGCGG", "self-cleavage": 0.184}
{"variant": "AACACUGCCAAUGCCGGUCCCAAGCCCGGAGAAAAGUGGAGGGGGCGC", "self-cleavage": 1.19}
{"variant": "AACACUGCCAAUGCCGGUCCCAAGCCCGGAUCAAAGUGGAGCGGGCGG", "self-cleavage": 0.326}
{"variant": "AACACUGCCAAUGCCGGUCCCAAGCCCGGAUCAAAGUGGAGAGGGCGG", "self-cleavage": 0.289}
{"variant": "AACACUGCCAAUGCCGGUCCCAAGCCCGGAUCAAAGUGGAGGGGACGG", "self-cleavage": 0.95}
{"variant": "AACACUGCCAAUGCCGGUCCCAAGCCCGGAUCAAAGUGGAGGGGUCGG", "self-cleavage": 0.758}
{"variant": "AACACUGCCAAUGCCGGUCCCAAGCCCGGAUCAAAGUGGAGGGGCCGG", "self-cleavage": 0.546}
{"variant": "AACACUGCCAAUGCCGGUCCCAAGCCCGGAUGAAGGUGGAGGGGGCGG", "self-cleavage": 0.718}
{"variant": "AACACUGCCAAUGCCGGUCCCAAGCCCGGAUGAAUGUGGAGGGGGCGG", "self-cleavage": 0.986}
{"variant": "AACACUGCCAAUGCCGGUCCCAAGCCCGGAUCAAAGUCGAGGGGGCGG", "self-cleavage": 0.89}
{"variant": "AACACUGCCAAUGCCGGUCCCAAGCCCGGAUCAAAGUAGAGGGGGCGG", "self-cleavage": 1.03}
{"variant": "AACACUGCCAAUGCCGGUCCCAAGCCCGGAUACAAAUGGAGGGGGCGG", "self-cleavage": 0.175}
{"variant": "AACACUGCCAAUGCCGGUCCCAAGCCCGGAGAAAAGUGGAGGGGGCUG", "self-cleavage": 0.92}
{"variant": "AACACUGCCAAUGCCGGUCCCAAGCCCGGAUGAAAGUGGCGGGGGCGG", "self-cleavage": 0.226}
{"variant": "AACACUGCCAAUGCCGGUCCCAAGCCCGGAUGAAAGUGGUGGGGGCGG", "self-cleavage": 0.117}
{"variant": "AACACUGCCAAUGCCGGUCCCAAGCCCGGAGAAAAGGGGAGGGGGCGG", "self-cleavage": 0.734}
{"variant": "AACACUGCCAAUGCCGGUCCCAAGCCCGGAUGAAAUUGGAGGGGGCGG", "self-cleavage": 0.244}
{"variant": "AACACUGCCAAUGCCGGUCCCAAGCCCGGAUGAAACUGGAGGGGGCGG", "self-cleavage": 0.403}
{"variant": "AACACUGCCAAUGCCGGUCCCAAGCCCGGAUCAAAGUGGAGGGGGCGG", "self-cleavage": 0.967}
{"variant": "AACACUGCCAAUGCCGGUCCCAAGCCCGGAUGAAAGUGGAGGGGGCGG", "self-cleavage": 0.961}
{"variant": "AACACUGCCAAUGCCGGUCCCAAGCCCGGAUUAAAGUGGAGGGGGCGG", "self-cleavage": 0.975}
{"variant": "AACACUGCCAAUGCCGGUCCCAAGCCCGGAUUAAAGUCGAGGGGGCGG", "self-cleavage": 1.12}
{"variant": "AACACUGCCAAUGCCGGUCCCAAGCCCGGAUGAAAGUGGAGGGGCCGG", "self-cleavage": 0.559}
{"variant": "AACACUGCCAAUGCCGGUCCCAAGCCCGGAUCAAAGGGGAGGGGGCGG", "self-cleavage": 0.625}
{"variant": "AACACUGCCAAUGCCGGUCCCAAGCCCGGAUUAAAAUGGAGGGGGCGG", "self-cleavage": 0.701}
{"variant": "AACACUGCCAAUGCCGGUCCCAAGCCCGGAUUAAAGUGGAGGUGGCGG", "self-cleavage": 0.384}
{"variant": "AACACUGCCAAUGCCGGUCCCAAGCCCGGAUUAAAGUGGAGGAGGCGG", "self-cleavage": 0.239}
{"variant": "AACACUGCCAAUGCCGGUCCCAAGCCCGGAUCCAAGUGGAGGGGGCGG", "self-cleavage": 0.767}
{"variant": "AACACUGCCAAUGCCGGUCCCAAGCCCGGAUCUAAGUGGAGGGGGCGG", "self-cleavage": 0.865}
{"variant": "AACACUGCCAAUGCCGGUCCCAAGCCCGGAUGAUAGUGGAGGGGGCGG", "self-cleavage": 0.85}
{"variant": "AACACUGCCAAUGCCGGUCCCAAGCCCGGAUGAGAGUGGAGGGGGCGG", "self-cleavage": 0.679}
{"variant": "AACACUGCCAAUGCCGGUCCCAAGCCCGGAUGAAAGUGGAGGUGGCGG", "self-cleavage": 0.439}
{"variant": "AACACUGCCAAUGCCGGUCCCAAGCCCGGAUGAAAGUGGAGGAGGCGG", "self-cleavage": 0.284}
{"variant": "AACACUGCCAAUGCCGGUCCCAAGCCCGGAUACAUGUGGAGGGGGCGG", "self-cleavage": 0.936}
{"variant": "AACACUGCCAAUGCCGGUCCCAAGCCCGGAUACAGGUGGAGGGGGCGG", "self-cleavage": 0.707}
{"variant": "AACACUGCCAAUGCCGGUCCCAAGCCCGGAUACACGUGGAGGGGGCGG", "self-cleavage": 0.522}
{"variant": "AACACUGCCAAUGCCGGUCCCAAGCCCGGAUCAGAGUGGAGGGGGCGG", "self-cleavage": 0.761}
{"variant": "AACACUGCCAAUGCCGGUCCCAAGCCCGGAUCAUAGUGGAGGGGGCGG", "self-cleavage": 0.786}
{"variant": "AACACUGCCAAUGCCGGUCCCAAGCCCGGAUACAAGUGGAGGCGGCGG", "self-cleavage": 0.107}
{"variant": "AACACUGCCAAUGCCGGUCCCAAGCCCGGAUACAAGUGGAGGUGGCGG", "self-cleavage": 0.297}
{"variant": "AACACUGCCAAUGCCGGUCCCAAGCCCGGAUUAAAGUGGAGGGGGAGG", "self-cleavage": 0.873}
{"variant": "AACACUGCCAAUGCCGGUCCCAAGCCCGGAUUAAAGUGGAGGGGGGGG", "self-cleavage": 0.973}
{"variant": "AACACUGCCAAUGCCGGUCCCAAGCCCGGAGAAAAGUGGAGUGGGCGG", "self-cleavage": 0.447}
{"variant": "AACACUGCCAAUGCCGGUCCCAAGCCCGGAGAAAAGUGGAGGGGACGG", "self-cleavage": 0.99}
{"variant": "AACACUGCCAAUGCCGGUCCCAAGCCCGGAUCAAAGUGGAGGGGGCGA", "self-cleavage": 0.929}
{"variant": "AACACUGCCAAUGCCGGUCCCAAGCCCGGAUCAAAGUGGAGGGGGCGU", "self-cleavage": 0.893}
{"variant": "AACACUGCCAAUGCCGGUCCCAAGCCCGGAUCAAAGUGGAGGGGGCGC", "self-cleavage": 1.12}
{"variant": "AACACUGCCAAUGCCGGUCCCAAGCCCGGAUCAAAGUGGAGGGGGUGG", "self-cleavage": 0.863}
{"variant": "AACACUGCCAAUGCCGGUCCCAAGCCCGGAUCAAAGUGGACGGGGCGG", "self-cleavage": 0.326}
{"variant": "AACACUGCCAAUGCCGGUCCCAAGCCCGGAUCAAAGUGGAUGGGGCGG", "self-cleavage": 0.603}
{"variant": "AACACUGCCAAUGCCGGUCCCAAGCCCGGAUCAAAGUGGAAGGGGCGG", "self-cleavage": 0.556}
{"variant": "AACACUGCCAAUGCCGGUCCCAAGCCCGGAUCAAAGUGGUGGGGGCGG", "self-cleavage": 0.123}
{"variant": "AACACUGCCAAUGCCGGUCCCAAGCCCGGAUCAAAGUGGGGGGGGCGG", "self-cleavage": 0.134}
{"variant": "AACACUGCCAAUGCCGGUCCCAAGCCCGGAUUAAAGUGGAGUGGGCGG", "self-cleavage": 0.298}
